Assays:
[1] = target: SARS-CoV-2 S ectodomain (residues 1-1214) with prefusion stabilizing 986P, 987P variants, C-terminal (SARS-CoV-2) (UniProt P0DTC2); assay: SEC
[2] = target: SARS-CoV-2 prefusion-stabilized spike protein ectodomain (aa 16-1208), expressed in Drosophila S2 cells (SARS-CoV-2) (UniProt P0DTC2); assay: SEC

Substance	stoichiometry N [1]	stoichiometry N [2]
SARS-CoV-2 S ectodomain (residues 1-1214) with prefusion stabilizing 986P, 987P variants, C-terminal (from UniProt P0DTC2 14-1214) (domain or fragment)	3	–
SARS-CoV-2 prefusion-stabilized spike protein ectodomain (aa 16-1208), expressed in Drosophila S2 cells (from UniProt P0DTC2 16-1208) (domain or fragment)	–	2

From article PMC8064498
